These results are taken from patent publication US9540337B2, “Gamma-glutamyl transpeptidase inhibitors and methods of use” (The Board of Regents of the University of Oklahoma, priority 2012, dated 2017).

Data set [1] concerns T1, N[C@H](CCC(=O)Nc1ccc([N+](=O)[O-])cc1)C(=O)O.
T1 construct: lacking the transmembrane domain; made in house; host or cells: Pichia pastoris
The experiment in a line: Initial rate studies with D-GpNA and L-GpNA, with or without acceptor GlyGly. The note with it: pH 7.4, 37.0 °C. The data set is classed as biochemical, human. Here is the method: (§1) Transpeptidation Reaction: The same assay buffer was used for both the hydrolysis reaction and the transpeptidation reaction. The transpeptidation reaction included 40 mM glycylglycine (glygly, Sigma, St. Louis, Mo.) as the acceptor. The concentration of the substrate for the transpeptidation reaction, L-GpNA (Sigma) was varied from 0.25 mM to 3 mM. The concentration of L-GpNA was 3 mM for experiments in which the concentration of glygly was varied. To initiate the transpeptidation reaction, 4 mU GGT were added.
(§2) 1. […] 2, which describes a ping pong kinetic mechanism. […] 3 and 4. […] 5 (25).
(§3) In eq. […] Data for noncompetitive inhibition were fitted to eq. 6. […] 6 [25].
(§4) Initial Rate Studies with D-GpNA and L-GpNA: In this study, the inhibition of both the GGT hydrolysis and transpeptidation reactions by OU749 and a new series of thiadiazol sulfonamide analogs was studied. The hydrolysis and transpeptidation reactions were analyzed separately by using different stereo-isomers of the γ-glutamyl-p-nitroanilide (GpNA) substrate. The kinetics of both reactions were first characterized in the absence of inhibitors. Cleavage of the γ-glutamyl bond of either D-GpNA or L-GpNA releases p-nitroanaline, which has an OD405 of 7,680 M^−1 cm^−1, allowing for the reactions to be monitored continuously with high sensitivity. The D-glutamyl isomer of GpNA was used as the substrate for the hydrolysis reaction, in which water serves as the acceptor. The L-glutamyl isomer of GpNA, with glycylglycine (GlyGly) as an acceptor, was used for the transpeptidation reaction. L-GpNA can serve as both a substrate and a low affinity acceptor, while D-GpNA is unable to serve as an acceptor (18, 21, 26). Therefore, in the absence of an added acceptor GGT exclusively catalyzes a hydrolysis reaction with D-GpNA as the substrate. When L-GpNA is used as a substrate, the GGT reaction is a mixture of both the hydrolysis and transpeptidation reactions. Under these conditions, the rate of the reaction is the sum of hydrolysis and transpeptidation reactions, with the hydrolysis reaction contributing more at low L-GpNA concentrations and transpeptidation dominating at saturating substrate concentrations. […] However, the maximum rate (Vmax) obtained with L-GpNA was approximately 3-times faster than that measured with D-GpNA, and the KGpNA for L-GpNA was 5-times higher than that measured for D-GpNA. This is at least partially due to the ability of L-GpNA to serve as an acceptor, resulting in a transpeptidation reaction, which is faster than the hydrolysis reaction. Therefore, to study the hydrolysis reaction in isolation, D-GpNA was used as the substrate without any added acceptor.

In data set [2] the test system is T2, N[C@@H](CCC(=O)Nc1ccc([N+](=O)[O-])cc1)C(=O)O.
T2 construct: lacking the transmembrane domain; made in house; host or cells: Pichia pastoris
The description is as above. It counts as biochemical, human. The note with it: pH 7.4, 37.0 °C. Here is the method: as §1, §2, §3, §4

Sequence of Human GGT1 (Homo sapiens) (chain, as listed by the source): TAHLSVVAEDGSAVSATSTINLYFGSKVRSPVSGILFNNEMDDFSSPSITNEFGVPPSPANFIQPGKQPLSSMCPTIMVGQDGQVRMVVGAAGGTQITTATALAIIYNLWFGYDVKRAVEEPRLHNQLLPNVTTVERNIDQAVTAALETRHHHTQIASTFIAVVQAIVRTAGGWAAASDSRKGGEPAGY
Sequence of Human GGT1 (Homo sapiens) (chain, as listed by the source): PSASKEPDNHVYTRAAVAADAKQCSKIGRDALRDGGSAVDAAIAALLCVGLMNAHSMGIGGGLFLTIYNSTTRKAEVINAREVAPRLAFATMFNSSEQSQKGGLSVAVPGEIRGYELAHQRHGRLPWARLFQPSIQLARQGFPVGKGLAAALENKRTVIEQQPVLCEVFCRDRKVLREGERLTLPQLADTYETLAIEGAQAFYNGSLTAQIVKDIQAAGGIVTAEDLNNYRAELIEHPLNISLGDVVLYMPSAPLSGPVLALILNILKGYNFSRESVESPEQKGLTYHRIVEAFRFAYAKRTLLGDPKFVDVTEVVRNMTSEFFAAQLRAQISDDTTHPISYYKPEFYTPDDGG

As to Human GGT1 (Homo sapiens), the Km (in general, the concentration of substrate that gives half-maximal velocity) in data set [1] (other: minus acceptor) came to 160 ± 20 µM; in data set [1] (other: plus acceptor GlyGly) it was 4200 ± 100 µM; in data set [2] (other: minus acceptor), 830 ± 60 µM; in data set [2] (other: plus acceptor GlyGly), 1200 ± 100 µM.
